Test results: publication doi:10.1101/2024.08.21.608941

Assays:
[1] = target: M. tuberculosis Eσ^B holoenzyme (M. tuberculosis) (UniProt P9WGZ1); assay: cryo-EM particle classification
[2] = target: M. tuberculosis Eσ^B holoenzyme (M. tuberculosis) (UniProt P9WGZ1); assay: negative-stain electron microscopy
[3] = target: RNAP core deltaFT;sigB Cys151/292 (DY547P1/DY647P1 labelled);RbpA (Mycobacterium …, UniProt P9WGZ1;P9WGY9;P9WGY7;P9WGY5;P9WGI5;P9WHJ5 …, internal_change|T151C;G292C|); assay: smFRET
[4] = target: RNAP core deltaFT;sigB Cys151/292 (DY547P1/DY647P1 labelled) (Mycobacterium …, UniProt P9WGZ1;P9WGY9;P9WGY7;P9WGY5;P9WGI5 1-347;1-810+826-1178;1-1316;1-110;1-323, internal_change|T151C;G292C); assay: smFRET

Row | Molecule | stoichiometry N [1] | stoichiometry N [2] | binding result [3] | binding result [4]
1 | M. tuberculosis Eσ^B holoenzyme (from UniProt P9WGZ1;P9WGY9;P9WGY7;P9WGY5;P9WGI5) (complex) | 2 | 8 |  | 
2 | TGCGTATAATGTGTGGA (ssDNA) [-10 ssDNA (unlabelled)] |  |  | binds | binds
